Data reported in US20240327502A1 (Merck Sharp & Dohme, published 2024).

Experiments:
[1] = target: T1, Processed stabilized hMPV PreF trimer (115BV) (human metapneumovirus, strain B2); test: BLI, ratio to unprocessed PreF trimer
T1 construct: also called Processed hMPV PreF trimer; processed PreF

hMPV PostF trimer = target: T2, hMPV PostF trimer (human metapneumovirus, strain B2); test: BLI, mAb on anti-human Fc sensor
T2 construct: also called MPV PostF (dPFv1)

[2] = target: T1, Processed stabilized hMPV PreF trimer …; test: BLI, mAb on anti-human Fc sensor
[3] = target: T3, Unprocessed hMPV PreF trimer (human metapneumovirus, strain B2); test: BLI, mAb on anti-human Fc sensor
T3 construct: also called Unprocessed hMPV WT PreF trimer; unprocessed hMPV PreF trimeric antigen

Binder | processed/unprocessed PreF trimer binding ratio [1] | Octet binding response (hMPV PostF trimer) | Octet binding response [2] | Octet binding response [3]
M2B12 (antibody, V domains shown, IgG) VH: QVQLVESGGGVVQPGRSLRLSCEASGFTFSSSAMHWVRQAPGKGLEWVAIISYHGTNKDYSDSVRGRFTISRDNSKNTLYLQMNGLRGDDTAVYYCAKEAAVSGNFDSWGQGTMVTVSS VL: QLVLTQSPSASASLGASVKLTCTLISGPSNYAIAWHRQQPQKGPRYLMKVNSDGSHTKGDGIPDRFSGSSSGTERYLIISNLQSEDEADYYCQTWGSGIYVFGPGTKVTVL | 1.16 | 0.445 nm | 0.438 nm | 0.378 nm
M2A03 (antibody, V domains shown, IgG) VH: QLQLQESGPGLVKPSETLSLTCSVSGGSISSSSNSWTWIRQPPGKGLEWIATIFYFGSTYYNPSLRSRVAISVDTSENQFSLKLTSVTAADTAVYFCARHILSSSGVSGWLDPWGQGTLVTVSS VL: SYELTQPPSVSVSPGQTASITCSGEKLGSKYAHWYQQKPGRSPVLVIYQDTKRPSGIPERFSGSNSGSTATLTISGTQAMDEADYYCQAWDSSSFVFGTGTTVTVL | 0.29 | 0.477 nm | 0.109 nm | 0.369 nm
M2A05 (antibody, V domains shown, IgG) VH: QITLKESGPTLVKPTQTLTLTCTVSGFSLSANSVGVAWFRQPPGKAPEWLGVIYWDDDKRFSPSLKTRLSITKDASTSQVVLRLTNVSPLDTATYYCVRKHYDLLQWGQGAPVTVSS VL: EIVLTQSPGTLSLSPGEGATLSCRASRSVNSDYIAWYQHKPGLAPRLLIYAASTRATDIPDRFRADVSGTDFTLTIDRLEPDDFAVYYCQQYGSAVWTFGQGTRVEVK | 1.18 | 0.449 nm | 0.447 nm | 0.378 nm
M3A07 (antibody, V domains shown, IgG) VH: QVQLVQSGAEVQKPGASVKVSCKASGYTFTRHAIHWVRQAPGQRLEWIGWVHGGNENTKYSQKLQGRVTITRDTSASTAYMELNSLRYEDTAVYYCATAMPGAFNMWGQGTVVTVSS VL: DIQMTQSPSTLSASVGDRVTITCRASQSISSWVAWYQQKPGKAPKLLIYKAFSLETGVPSRFSGSGSGTEFTLTISSLQPDDCATYYCQQYGSFSEFTFGQGTKLEIK | 0.17 | -0.022 nm | 0.0536 nm | 0.324 nm
M4C04 (antibody, V domains shown, IgG) VH: RVTLRESGPALLKPTQTLTLTCTFSGFSLNTYGMSVNWIRQPPGKALEWLSRIDWDGDKYFNTSLKTRLTISKDTSKNQVVLTMTNMEPVDTATYYCAQSVIVPAQSFVSWFDPWGPGTLVTVSS VL: EIVMTQSPATLSVSPGERATLSCRASQSVRSNLAWYQQKPGQAPRLLIYGASSRATGIPARFSGSGSGTEFTLTISSLQSEDLAIYYCQQYNNWPPGAFGQGTKVEIK | 0.89 | 0.442 nm | 0.303 nm | 0.342 nm
M2A02 (antibody, V domains shown, IgG) VH: QVQLVQSGAEVKRPGSSVKVSCKASGDIFSSHAISWVRQTPGQGLKWMGRIIPLVGIRNYAQDLQGRVTISADKSINTVYMELTNLRFDDTAVYYCARDRTDWSGGLDIWGQGTRVTVSS VL: EIVLTQSPATLSLSPGERATLSCRASQRIGSYLAWYQQKPGQAPRLLIYDASNRATGIPARFSGSGSGTDFTLTISRLEPEDSAIYYCQQRTDWFTFGGGTKVEIK | 0.3 | -0.0402 nm | 0.0795 nm | 0.261 nm
M2D2 (antibody, V domains shown, IgG) VH: QVQLVQSGAEVKKPGASVKVSCKASGYNFDNYYMSWVRQAPGQGLEWLGIIDPSGGRISYAPKFQGRVTLTRDTSTSTVYMELRGLRFEDTALYYCARLEATHEGPWGQGTLVTVSS VL: QSVLTQPPSASGTPGQRVTISCSGSNSNIGSSTVNWYQQLPGTAPKLLIYSDNHRPSGVPDRFSGSRSGTSASLVISGLHSEDEADYYCGTWDDGLNGPYVFGTGTKVTVL | 0.97 | 0.454 nm | 0.351 nm | 0.362 nm
M4F8 (antibody, V domains shown, IgG) VH: QVQLVQSGPEVKKPGASVKISCKASEYTFTNHYLHWVRQAPGQGLEWLGIINPTGGSTYYAGDFQGRVTLTRDASTTTVYMELSSVKSEDTAIYYCARDRGMRYFDYWGQGTLVTVSS VL: QSVLTQPPSVSGAPGQRVSISCTGISSNIGATYDVHWYQQLPGTAPKLLIYGNNNRPSGVPDRFSGSKSGTSASLAITGLQAEDEAVYYCQSYDSVLSGSVIFGGGTILTVL | 0.22 | 0.0408 nm | 0.0584 nm | 0.271 nm
M2A06 (antibody, V domains shown, IgG) VH: QVQLVQSGAEVKKPGASVKISCKASGYSFSNYYIQWVRQAPGQGLEWLGIINPSGGSTDYAQKFEGRVSMTRDTSTNTVYMEMSSLRSEDTASYYCVRSLANGSGSPWGQGTLVIVSS VL: DIQMTQSPSTLSASVGDRVTITCRASQSISSRLAWYQQKPGKAPNLLLYDASRSESGVPSRFSGSGSGTEFTLTISSLQPDDVATYYCQHYSIYSRWTFGQGTKVEIK | 0.22 | -0.0352 nm | 0.052 nm | 0.237 nm
M4B05 (antibody, V domains shown, IgG) VH: QVQLVQSGPEVRKPGASVIISCKASGYSFISYYIHWVRQAPGQGLEWMGIINPSGGSTEYAQKYQGRLTITRDTSTTTVSMTLSSLRSDDTAVYFCAREQAVGAYDIWGQGTMVTVSS VL: EIVLTQSPGTLSLSPGERATLSCRAGQLINGNYLAWYQKKPGQAPSLLIYDVSRRAAGVPDRFTGSGSGTDFTLTISRLEPDDFAVYYCQHYGRSPSPTFGGGTKVEIK | 0.19 | -0.0395 nm | 0.0529 nm | 0.281 nm
M2B10 (antibody, V domains shown, IgG) VH: QVQLVESGGGVVQPGRSLRLSCAASGFTFSNYPMHWVRQAPGKGLAWVALISYDGRTKYYADSVKGRFTISRDNSMNTVYLQMNSLRAEDTAVYYCAREGLEYLNYWGQGTLVTVSS VL: EIVLTQSPGTLSLSPGERATLSCRASQSISSNSLAWYQQKPGQAPRLLSYGTSNRATGIPDRFSGSGSGTDFTLTISRLEPEDFAVYYCQQYGSSPLTFGPGTKVDIK | 0.13 | -0.0646 nm | 0.0278 nm | 0.209 nm
M2B09 (antibody, V domains shown, IgG) VH: QVQLVQSGPEVKGPGASVRVSCKANGYTFTSYGINWVRQTPGQGLQWMGWISVHTDDTKDVQQFQDRVTMTTDTSTSTVFMELRNLRFDDTAVYYCARDRTDISGRVRDAFDLWGQGTLVTVSS VL: SYVLTQPPSVSVAPGQTAKITCGGNNIGSKSVHWYRQKPGQAPVLVVYDDSDRPSGIPERFSGSNSGNTATLTISRVEAGDEADYYCHVWDSYSDPNYVFGSGTKVTVL | 0.03 | -0.0435 nm | 0.0092 nm | 0.302 nm
M2D01 (antibody, V domains shown, IgG) VH: QVQLQESGPGVVKPSETLSLTCTVSRGAITDYHLNWIRQPPGKGLEWIGYISSSGSTNYNPSLKSRVTISQVMSGTQFSLKLTSMSAADTALYYCASSSGRYWGGALDLWGQGTQVIVSS VL: DIVMTQSPDSLAVPLGERATINCKSSQSLLYTSNNKNSLAWYQQKPGQPPKLLLFWASTREFRVPDRFSGSGSGTDFTLTISSLQAEDVAVYYCQQYYTAPYTFGPGTKLEIK | 0.19 | 0.493 nm | 0.0622 nm | 0.33 nm
M4B11 (antibody, V domains shown, IgG) VH: QVQLVQSGTEVQTPGASVKVSCKTSGYIFTGYFMHWVRQAPGQGFEWMGWVNPYSGATTYAQKFQGRVTMTRDTSISTVYMELSRLTSDDTAIYYCAKDTSNSGPDLLEHWGQGTLVIVSS VL: EIVLTQSPATLSLSPGERATLSCRASQSISNFLVWYQRKPGQAPRLLIFDVSKRATGIPTRFSGSGSGTDFTLTISSLEPEDFAVYYCQQRSNWPPGYTFGQGTKLEIK | 0.18 | 0.426 nm | 0.0489 nm | 0.273 nm
M2F01 (antibody, V domains shown, IgG) VH: QVQLVQSGAEVKKPGASVKVSCKASEDTFTNYYMHWVRQAPGQGLEWMGIINPSGGSTDYAQKFQGRVTMTRDTSTSTVYMELSSLRSEDTAMYYCARQGRTAACDYWGQGTLVTVSS VL: DIQMTQSPSSVSASVGDRVTITCRASQGIRSWLAWYQQKPGKAPKLLIYAASTLQSGVPSRFSGSGSGTDFTLTISSLQPEDFATYYCQQSNSFSLFTFGPGTRVDIK | 0.22 | -0.0326 nm | 0.0736 nm | 0.335 nm
M4C03 (antibody, V domains shown, IgG) VH: EVQLVESGGTLVQPGGSLRLSCAASGFRFNAFSMNWVRQAPGKGLEWVSYIDSRSNIIYYADSVKGRFTISRDNAKTSLYLRMSSLRDEDTAVYYCAKALCVVNYDFWSGLLGCAMDVWGQGTTVTVSS VL: QSVLTQPPSVSGAPGQRVTISCTGTTSNIGAGFDVHWYQQVPGTAPKLLIYANTDRPSGVPDRFSASKSGTSASLAITGLQVEDEAHYYCQTYDTTLSGSTVFGGGTKLTVL | 0.12 | 0.506 nm | 0.0323 nm | 0.263 nm
M4C08 (antibody, V domains shown, IgG) VH: EVQLVESGGTLVQPGGSLRLSCAASGFKFNAFSMNWVRQAPGKGLEWVSYIDSRSNIIYYADSVKGRFTISRDNAKNSLYLRMSSLRDEDTAVYYCAKALCVVNYDFWSGLLGCAMDVWGQGTTVTVSS VL: QSVLTQPPSVSGAPGQRVTISCTGNTSNIGAGFDVHWYQQVPGTAPKLLIYANTDRPSGVPDRFSASKSGTSASLAITGLQAEDEADYYCQTYDRSLSGSTVFGGGTKLTVL | 0.12 | 0.467 nm | 0.0268 nm | 0.222 nm
